In the experiment the target is α6 integrin (mouse) (UniProt Q61739). Briefly: cell-based or functional assay.
UniProt Q61739, sequence (Q61739 24-1091): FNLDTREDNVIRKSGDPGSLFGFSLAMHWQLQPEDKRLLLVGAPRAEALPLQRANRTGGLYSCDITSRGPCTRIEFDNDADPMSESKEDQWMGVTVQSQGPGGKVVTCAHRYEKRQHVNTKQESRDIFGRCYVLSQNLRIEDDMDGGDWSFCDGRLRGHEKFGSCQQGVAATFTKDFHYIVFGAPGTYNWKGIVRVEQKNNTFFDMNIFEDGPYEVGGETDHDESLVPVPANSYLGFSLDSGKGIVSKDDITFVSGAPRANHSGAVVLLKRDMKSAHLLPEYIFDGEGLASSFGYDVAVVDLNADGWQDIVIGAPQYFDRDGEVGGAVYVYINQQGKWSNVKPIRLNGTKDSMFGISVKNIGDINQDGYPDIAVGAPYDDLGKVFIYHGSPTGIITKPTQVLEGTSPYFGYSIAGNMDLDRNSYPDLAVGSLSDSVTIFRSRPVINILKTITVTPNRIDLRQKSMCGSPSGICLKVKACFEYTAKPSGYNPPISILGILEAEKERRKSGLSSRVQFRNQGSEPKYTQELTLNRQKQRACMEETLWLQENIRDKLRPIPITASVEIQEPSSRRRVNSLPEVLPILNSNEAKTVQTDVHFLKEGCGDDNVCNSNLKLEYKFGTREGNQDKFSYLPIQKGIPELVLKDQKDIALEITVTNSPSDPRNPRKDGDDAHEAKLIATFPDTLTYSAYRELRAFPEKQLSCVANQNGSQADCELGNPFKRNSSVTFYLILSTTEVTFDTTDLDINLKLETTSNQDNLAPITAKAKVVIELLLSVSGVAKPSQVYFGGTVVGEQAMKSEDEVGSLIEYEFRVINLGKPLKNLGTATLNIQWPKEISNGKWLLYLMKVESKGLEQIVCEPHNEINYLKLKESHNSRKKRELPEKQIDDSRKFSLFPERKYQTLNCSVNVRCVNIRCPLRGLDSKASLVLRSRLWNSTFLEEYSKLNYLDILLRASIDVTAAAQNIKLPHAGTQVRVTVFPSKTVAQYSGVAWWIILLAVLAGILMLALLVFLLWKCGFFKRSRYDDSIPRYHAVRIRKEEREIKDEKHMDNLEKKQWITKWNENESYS

Take “Rat monoclonal antibody (clone NKI-GoH3, IgG2a)”: the total cell number per well (13.5 dpc fetal mouse pancreas cells cultured with laminin-1) (cells per well) came out at 7190 and the β cell number per well (13.5 dpc fetal mouse pancreas cells cultured with laminin-1) (cells per well) came to 6890.

The record behind these values is patent US20020072115A1.
